Results on one molecule are retold here after PMC12749748 (2025).

Some results are limits rather than exact numbers.

This experiment concerns the target VHL (Homo sapiens, UniProt P40337). Nature of the experiment: SPR. Background: Surface plasmon resonance follows binding to a sensor surface in real time, without labels.

The Kd is the equilibrium constant for the complex coming apart. Read a high Kd as a looser complex.

Chain of VHL (P40337 whole entry): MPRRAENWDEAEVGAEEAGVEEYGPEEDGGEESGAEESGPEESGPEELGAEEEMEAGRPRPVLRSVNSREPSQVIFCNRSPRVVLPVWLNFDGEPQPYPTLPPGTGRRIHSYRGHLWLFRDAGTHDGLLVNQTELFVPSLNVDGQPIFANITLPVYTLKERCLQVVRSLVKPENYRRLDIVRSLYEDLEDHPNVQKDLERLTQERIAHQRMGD

B1: IRE1 (protein)
chain: IFGSTSTVTLPETLLFVSTLDGSLHAVSKRTGSIKWTLKEDPVLQVPTHVEEPAFLPDPNDGSLYTLGSKNNEGLTKLPFTIPELVQASPCRSSDGILYMGKKQDIWYVIDLLTGEKQQTLSSAFADSLCPSTSLLYLGRTEYTITMYDTKTRELRWNATYFDYAASLPEDDVDYKMSHFVSNGDGLVVTVDSESGDVLWIQNYASPVVAFYVWQREGLRKVMHINVAVETLRYLTFMSGEVGRITKWKYPFPKETEAKSKLTPTLYVGKYSTSLYASPSMVHEGVAVVPRGSTLPLLEGPQTDGVTIGDKGECVITPSTDVKFDPGLKSKNKLNYLRNYWLLIGHHETPLSASTKMLERFPNNLPKHRENVIPADSEKKSFEEVINLVDQTSENAPTTVSRDVEEKPAHAPARPEAPVDSMLKDMATIILSTFLLIGWVAFIITYPLSMHQQQQLQHQQFQKELEKIQLLQQQQQQLPFHPPGDTAQDGELLDTSGPYSESSGTSSPSTSPRASNHSLCSGSSASKAGSSPSLEQDDGDEETSVVIVGKISFCPKDVLGHGAEGTIVYRGMFDNRDVAVKRILPECFSFADREVQLLRESDEHPNVIRYFCTEKDRQFQYIAIELCAATLQEYVEQKDFAHLGLEPITLLQQTTSGLAHLHSLNIVHRDLKPHNILISMPNAHGKIKAMISDFGLCKKLAVGRHSFSRRSGVPGTEGWIAPEMLSEDCKENPTYTVDIFSAGCVFYYVISEGSHPFGKSLQRQANILLGACSLDCLHPEKHEDVIARELIEKMIAMDPQKRPSAKHVLKHPFFWSLEKQLQFFQDVSDRIEKESLDGPIVKQLERGGRAVVKMDWRENITVPLQTDLRKFRTYKGGSVRDLLRAMRNKKHHYRELPAEVRETLGSLPDDFVCYFTSRFPHLLAHTYRAMELCSHERLFQPYYFHEPPEPQPPVTPDAL
B1 showed a Kd of more than 10 µM.
